Test: soluble on expression in E. coli; label from the status in PepcDB or PDB records

Row | Sequence | soluble on expression in E. coli
1 | MSSDNEIEDLKRAFIFALRKKFPRDSSSSIAIATVNLIRKIIFRENPKTMNDLQVSLANHCKKLHGAERSELIIINIGLMITKLARDEVLQKKGGGEPEPLYTLWRDDDETIKKLKTADMKKIKKDLQASIKELVTEIESSRECIASQSTELLFNNDVVLVHSLRSSQTMHNFLSHAVKSGRKHRVIDVVDEEEHIESTPDFATAIELYEVASKMPEASKVVLVAAAYFPDGSCLVPAGGHQIALLAKRHCVPVYVLAPFYKLCPFFMTNPDSLHTFRSNSLPFDLSAKSAGLVDCLHPAFDCLQSDLVTLFVSNTSCVIPSHVNRLKEDYYHSQDIADY | not soluble
2 | MSSDPWGRVDETGTVYVRTADGEQVVGSWQAGSPDEALAYFERKYEGLVVEIGLLEKRVKTTDLSAKDAQTAIDHIREQVDAHHAVGDLDVLRKRLDKLVETVAARREERKAQRAKQSDEARHAKESLVVEAEELAQSDQWRAAGERLRSLVDTWKGLPRLDRKSDDELWHRFSHARSAFSKRRKAHFASLDAQREDARKAKEKLVAEAEALSGSTDWGPTAARYRELMGDWKAAGRAQREHEDDLWNRFRGAQDVFFAARSSVFAERDAEQSENLKLKEELAEEAEKLLPISDLKAARAAFRSLNERWEAIGHVPRDARPKVEGRMHAVERALQESEEVEWRRTNPEARARAEGLTGQLQAAVDKLQGQIEAARSAGNNAKADKLQKELDGRQALLDQALKGLHEFGG | not soluble
3 | MSSIDIVIPNYNYGRFLKGCVESVLGQNIADMRILIIDNASTDDSVAISRSLAAANPRIETSLRARNLGGHASFNAGIDWARADYFAIICADDVLSPGALARAMEALDNNPGAHMAFGRTAFFRDDAEIASGLHSDADGMRLHRGMDFIANICATGRSPVQGPLAVTRTHIQQHAGHYRPALRHTDDVEMWMRLAVLGDIVELDAVQNFTRIHGANQSAILDNVLAWNAEIEAALESFFGNEGALLADAKTLLRRGRASLSDRAYWCALSNLVRRRPGAGALLAQAFRLRPASALLPPISYLMRRPDALHRIRAAIARRLEHHHHHH | not soluble
4 | MSSKHEILNALKLSALTNHPMPSIDVAPRVEDLVGQFETNLKTVAGTLHREGGLAALQAKVDELIAQGLQVISLVEGVTANRDVPPTAHELRDIDYAVIPGDVGVAENGAIWVNNKNLGHRVTPFICENLILALPIHKIVPNMHQAAKEVTLDAGEFGVFIAGPSKTADIEQALVVGAHGACSLNVYLV | soluble
5 | MSSNENSDDVPEQRQIVRRSRVYNPRDPSSPEPPYDPYPPGIHAQAGCATRPISAHIVPQALIEPIRLHREEDELAGTSSCRPVPQCDFNLESDRWEEDQLENPQIKSQWKGSETRPVANFARRQQRVLRTDWKHVDVQITVWEELKKVLEAAEIVDVTLNMMKTLNPDTKAMWLLKFHTTSLTEYLEDFESRAEYFNEMLLELDGIHPDLFTECSNYISQLKDVTHSRELQAVQVHLPKAVKNSDAQKVRFYLQLAGEAKKDIAVVLNNNKVKTLLIDNGFTL | not soluble
6 | MSSPSGSSRTFPQYQSGSGWNAMLPKRTPRTAAPARRHFKSLVIGAGYTGLAAARRLAELQPQDQVLVVDATVAGEGSAGRNSGFLINLPHNTRMSGHHSPLEVARKQIAMLQSGLDWLAQLSGQGGFDCGWDLAGKYHAAATADGEQSLRGALQQYGQWGVAYSELDRDALQAQLGTRYYRFGYHSMNNVFVQPAALIRGLADSLPENVWLTEDNPVLSIDGSGPYKVRTRGGEFTADNVILANNAFARRLGFLRSRLVTIFTYAGVTPVLSPAQQALLGERDQWGVIPANRLGTTLRRISGGRFMVRSAYSYEAEQPLERMEQLLRDSFVRRYPDLAAHDFEYVWSGSTGLTGNGASFVGAIQPGLYASVGCNGAGVIKGTIYGKLLGEQVAGHRSAMLDDLASFEKPNWLPPEPLRRIGALSTIAYQARKAGLEKLEHHHHHH | soluble
7 | MSSQPNQSLIDGIRCLQYLVSSDRAIGCRELARLMDINTTRVNRLLMTMASIGLTMQDEHRRYLPGPGIHALAAQAIRGSALFSHALPILERHAPKDIVVALGVLWEDQIIYIYHSTPGSQGSQALAGFRMYPAWQSVPGVALLAAESDEALMQRFTPEQWRNLAPHVAQQRQRGYVLWHHADGEVSMAQPLGKHAAALAFAGMWRIDEAEAAARLQALKALNQLIAQ | not soluble
8 | MSSQSNTGNSIEAPQLPIPGQTNGSANVTVDGAGVNVGIQNGSQGQKTGMDLYFDQALNYMGEHPVITGFGAFLTLYFTAGAYKSISKGLNGGKSTTAFLKGGFDPKMNSKEALQILNLTENTLTKKKLKEVHRKIMLANHPDKGGSPFLATKINEAKDFLEKRGISK | soluble
9 | MSSRAVSLFSKCGSRISQTRGKAHFTFQPSTTLPAGLENLEKTKMNLMQSVNEAMRIAMETDDSAVLFGEDVAFGGVFRCSLDLQKKFGKDRVFNTPLCEQGIAGFGIGVAAAGATAIAEIQFGDYIFPAYDQLVNEAAKFRYRSGNQFDCGKLTVRTTWGAVGHGALYHSQSPEANFTHTPGLKLVVPRGPVQAKGLLLSCIRDPNPCIFFEPKILYRLASEDVPTGDYTIPLGQAETVRSGKDLTLVAWGTQVHVALEAAQLAKEKLNADVEVIDLQTIQPWDEDHVVESVQKTGRLIVTHEAPISSGFGAEIASTVQKRCFLNLESPIDRVAGFDTPFPHVHEPFYLPTVHRVFDAIKKSVNY | not soluble
10 | MSSRIEQIIDEIDEFIESCKFQPLSATKIIVNKEEIEELLRELRLKTPDEIKRYQKIISNKDAILEDAQSKADAIIADAQAKAQELVTQHEIMQKAYAQANDTINAANKQAQEILDSATQDANSIRLSAITYTDDMMANIGSVLNQTLEDAGGKYKGFIDALQSCLDVVNHNRQELAPQTAQAAAMTGSYHEEPADAPEEDSLLDDLGEE | not soluble
11 | MSSSSESDSEGERKLPLSYRRKRRRDSSSTTNSEVSDNDRKKRQNEKRRSRESSKMKHQKTAKRDKPMWKEEGEISCDSESDVCNSSSSNNRSRCRDRRRRTDYGRRRHRNSDSRSHERWSTRRRQTTPEGNFRCDECGCNHYTLKGLIHHEMNDHNLNAKCHLCQKSFENKKTFREHCELDHTPEVVRCVFCKSSFDQPLEMNDEQWAHFFAHIYGEILYSRLADYEDRALNTA | not soluble
12 | MSSTAAKKDVKSSAVPVTAVVEKKEFEEEEFEEFPVQEWAERAEGEEDDVNVWEDNWDDETHESEFSKQLKEELRKSGHQVA | not soluble
13 | MSSTALLPPNTDQVLSRRLHGKAAEKKTGLAAIASKDVDEQSRKLQEYFEFWDRNHENESEEDRARRIDGYKSVVNSYYDLATDLYEYGWSQSFHFSRFYKGEAFAQSIARHEHYLAYRMGIKPGSRVLDVGCGVGGPAREITEFTGCNLVGLNNNDYQISRCNNYAVKRNLDKKQVFVKGDFMHMPFEDNTFDYVYAIEATVHAPSLEGVYGEIFRVLKPGGVFGVYEWVMSDDYDSSIPKHREIAYNIEVGDGIPQMVRKCDAVEAIKKVGFNLLEEDDLTDHDNPDLPWYYPLTGDITKCQNIWDVFTVFRTSRLGKLVTRYSVQFLEKIGVAAKGTSKVGDTLAIAQKGLIEGGETHLFTPMFLMIAKKPETDA | soluble
14 | MSTCSDESCDKECPLCMETLELDDINFYPCKCEYQICRFCWHRIRTDENGLCPACRQPYPEDPVNFKPMTTDDVRKHKDEQRLKKQAEKLKLSDARQYLCNYRVLQKNLVYVVGLSPRVADPEILKKNEYFGRYGKIQKIVTSATPSLPAPHLPPSHTAYVTYKRVDDALRAIQGVHNSMLDGRLVKASLGTTKYCSSFLNSRKCFKPVGECMYLHENAEAEISFTKDDMHLGKHTEYEKRLIESMNSRPPPPQSTLASQLDKILAPTSNSPRRYLEDDSDTVDDVERTGSAIHMCADDPDDDDADSTNTSNSIDDPAPSNPADETVNSRRSNQTARERQWSERDEISVAPSNTPPTDPEGNENEFEEDIHRNDVSDLMSKLDVNDDRLARTSFSENDYLGIPAPAKHQEAPAPLMQWEALLGLSSPSAQSTIVEPSSLFPTFKMDSGFNSQSLFGTHTSSTPSFRREASPPPGLARFNSDDDLGFDPFTESSKGLSALLQEEQEQIPPHNSASNHTLDVLKQLFGQLPEQRQSTQQHPQHLQSSHQQHPLQQNQDQHHSFLHQLHAQQQHQQQQFAADMNRQQDYMYSRLMSQQQQQSQQQRQFDSTPGFSHPFGSMQQQQQSSQQQQHQSQSSQSSSLLQDLFNRQQQQHQAQQQAQQHQQQQMYAGINSYMYNDMLMPRVPFGMAPPPGLGGPSTNRSSTTQQAPPHMTQQSQQQQQQQQSSMGLFGMGGHQSMMQDHQSQQPQSAQDAFKALLPNVNVRFMDDNSMSRWSHENSLRSSAVPPPPGFSSVMNR | not soluble
15 | MSTDKITFLLNWQPTPYHIPIFLAQTKGYFKEQGLDMAILEPTNPSDVTELIGSGKVDMGLKAMIHTLAAKARGFPVTSVASLLDEPFTGVLYLKGSGITEDFQSLKGKKIGYVGEFGKIQIDELTKHYGMKPEDYTAVRCGMNVAKYIIEGKIDAGIGIECMQQVELEEYLAKQGRPASDAKMLRIDKLACLGCCCFCTVLYICNDEFLKKNPEKVRKFLKAIKKATDYVLADPVKAWKEYIDFKPQLNNDLSYKQYQRCYAYFSSSLYNVHRDWKKVTGYGKRLAILPPDYVSNYTNEYLSWPEPEEVSDPLEAQRLMAIHQEKCRQEGTFKRLALPA | soluble
16 | MSTEQANGTTIEEKKDKVAEVTEKLDNLAVDTTNEANDAKQPARRGGFRGRGRGRGRGGHFYQPRPPYEDQMKKLEEDLASKKVIETGVKGHVKWFSVRGRYGFVARDKPTDENEDFFVHQTAITKSSTIKFYLRTLDDDEPVVFDIVEGLKGPEAANVTGPDGENVRGSRFARTLLTHWRTRGRGGARGRGGRGRGAPRQTRDQDGDEKDEKEKSDTIENSGDGETRGKRRTRRHGKLQPDAPSGEKGDGDAAAATTDAAPAAEKKKKRQRKGNKEPTTTTEQKEETAAPAKA | not soluble
17 | MSTGANRILDDLARLMTDAAGAAQGVRREVEAAFRAQTENWLNSLDVVKREEFEAVKEMAARARDENDALLARIEALEARLAATGPAAADITTGK | not soluble
18 | MSTHFDVIVVGAGSMGMAAGYQLAKQGVKTLLVDAFDPPHTNGSHHGDTKIIRHAYGEGREYVPLALRSQELWYELEKETHHKIFTKTGVLVFGPKGESAFVAETMEAAKEHSLTVDLLEGDEINKRWPGITVPENYNAIFEPNSGVLFSENCIRAYRELAEARGAKVLTHTRVEDFDISPDSVKIETANGSYTADKLIVSMGAWNSKLLSKLNLDIPLQPYRQVVGFFESDESKYSNDIDFPGFMVEVPNGIYYGFPSFGGCGLKLGYHTFGQKIDPDTINREFGVYPEDESNLRAFLEEYMPGANGELKRGAVCMYTKTLDEHFIIDLHPEHSNVVIAAGFSGHGFKFSSGVGEVLSQLALTGKTEHDISIFSINRPALKESLQKTTI | soluble
19 | MSTIKIVPLGGVRENGKNMYVAEVEDEIFVLDCGLQYPENELLGIDVVIPDFTYLEENSERIAGVFLTHGHADAIGALPYLLSKIQVPVFGTELTIELAKLSVNSHAETKKFKDFHVIDPHTEIDFGQATVSFFKTTHTIPDSIGVSIKTKEGNIVYTGDFKFDQSAIEMYQTDYGRLAEIGKEGVLALLSDSSNAENPAQVASEAQIADEVFDTIRYWEGRIIVACVASNLQRVQQVLNAADRSGRKVVLTGQDFERIIRTAMKLEKLQLPSEDLLVKPKEMKKYAPEQLLILETGRMGEPIKSLQKMANNTHGVVRIEEGDLVYITTTPTTAMETTVAKTEDIVYRAGATVKQISDNLRVSGHANPNDLQLMLNLMKPKYFIPVQGEYRQLAAHADLAHEIGMPYKDIFITGRGDILEYTKGRMSVAGSTTAENIMIDGIGVGDIGNIVLRDRRILSEDGIFVAVVTINRREKRIVSPAKITSRGFVYVKTSKDLMKESSNIVTEIVEKHLESDDFEWSKLKQEIRENLSRYLFEQTKRRPVILPVIMEATQRKRPKNNA | not soluble

Source: the DeepSol protein solubility set
